The results in this text go back to US6017533.

The target of assay [1] is PACAP receptor in rat brain crude membrane (rat). In words: displacement of [^125 I]PACAP 27 from rat brain crude membranes.
Assay [2] has the same target. In words: displacement of [^125 I]MAX from rat brain crude membranes.
For assay [3] the target is unchanged. Kind of assay: displacement of [^125 I]MAX and [^125 I]PACAP 27 from rat brain crude membranes; reference M65.

No end group written: not given here.

Turning to M65 (SEQ ID NO: 3) (peptide), the results for the IC50 in assay [1] and in assay [2] were 5.96 nM and 2.96 nM, respectively.

Take HSDGIFTDSYSRYRKQMAVKKYLAAVL-NH2 (ligand) [PACAP 27 (SEQ ID NO: 5-NH2)]: the IC50 in assay [1] worked out at 9.55 nM; in assay [2] it was 2.16 nM.

As for HSDGIFTDSYSRYRKQMAVKKYLAAVLGKRYKQRVKNK-NH2 (ligand) [PACAP 38 (SEQ ID NO: 4-NH2)], the IC50 was found to be 4.45 nM in assay [1] and 1.91 nM in assay [2].

FTDSYSRYRKQMAVKKYLAAVLGKRYKQRVKNK-NH2 [PACAP 6-38 (SEQ ID NO: 6-NH2)]: the fold of IC50 against M65 in assay [3] lay within 6 to 10 times. The IC50 in assay [1] worked out at 39.1 nM; in assay [2], 8.35 nM.

Take FTDSYSRYRKQMAVKKYLAAVL-NH2 [PACAP 6-27 (SEQ ID NO: 7-NH2)]: the figures for the IC50 in assay [1] and in assay [2] were 1030 nM and 235 nM, respectively.
